Key:
[1] = target: PfEMP1 ATS-Core of variant PFF0845c (P. falciparum); assay: NMR; 50 mM NaCl, 25°C
α17 D1722K = assay: FP
α17 Q1717A = assay: FP
α17 Y1713A = assay: FP
α17 Q1720A = assay: FP
α17 L1709A = assay: FP
α17 F1716A = assay: FP
α17 F1718A = assay: FP
α17 D1723K = assay: FP

B1: spectrin α chain domain 17 (domain or fragment)
chain: AHHEKLKEAYALFQFFQDLDDEESWIEEKLIRVSSQDYGRDLQGVQNLLKKHKRLEGELVAHEPAIQNVLDMAEKLKDKAAVGQEEIQLRLAQFVEHWEKLKELAKARGLKLEESLEYLQFMQNA
Kd [1]: 350 µM

B2: PfEMP1 ATS of variant PFF0845c, fluorescently labeled (H159C) (domain or fragment)
chain: KKKTKSTIDLLRVINIPKGDYGIPTMKSKNRYVPYKSGQYNGKKYIYMEGDESDDYTYIGDISSSDITSSESEYEDIDINNIYPYKSPKYKTLIDVVLEPSKRDTFNTQSDIPSDTSTNKFTDNEWNQLKQDFISNISQNSQMDLPKNNISGNIQMDTCPHVNILDDSMQEKPFITSIHDRDLHNGEEVTYNINLDDHKNMNFSTNHDNIPPKNDQNDLYTGIDLINDSISGNHNVNIYDELLKRKENELFGTNHTKHTTTNIVAKQTHNDPIVNQINLFHKWLDRHRNMCEQWDKNKKEELLDKLNEEWNKENKNNSNVTDTNGENNITRVLNSDVSIQIDMNSKPI
modifications: fluorescein (5-FAM; fluorescein-5-maleimide) on the introduced cysteine C159
Kd (α17 D1722K): 60 µM
Kd (α17 Q1717A): 28 µM
Kd (α17 Y1713A): 63 µM
Kd (α17 Q1720A): 41 µM
Kd (α17 L1709A): 140 µM
Kd (α17 F1716A): 300 µM
Kd (α17 F1718A): 63 µM
Kd (α17 D1723K): 35 µM

— paper PMC5570508 (2017)
